# Measurements as given in patent US20150225755A1, “Ergothioneine Production Through Metabolic Engineering” (priority 2012, published 2015).
# T1: NcEgt-1 (Neurospora crassa, UniProt Q7RX33)
# T1 sequence (Q7RX33 whole entry, looked up): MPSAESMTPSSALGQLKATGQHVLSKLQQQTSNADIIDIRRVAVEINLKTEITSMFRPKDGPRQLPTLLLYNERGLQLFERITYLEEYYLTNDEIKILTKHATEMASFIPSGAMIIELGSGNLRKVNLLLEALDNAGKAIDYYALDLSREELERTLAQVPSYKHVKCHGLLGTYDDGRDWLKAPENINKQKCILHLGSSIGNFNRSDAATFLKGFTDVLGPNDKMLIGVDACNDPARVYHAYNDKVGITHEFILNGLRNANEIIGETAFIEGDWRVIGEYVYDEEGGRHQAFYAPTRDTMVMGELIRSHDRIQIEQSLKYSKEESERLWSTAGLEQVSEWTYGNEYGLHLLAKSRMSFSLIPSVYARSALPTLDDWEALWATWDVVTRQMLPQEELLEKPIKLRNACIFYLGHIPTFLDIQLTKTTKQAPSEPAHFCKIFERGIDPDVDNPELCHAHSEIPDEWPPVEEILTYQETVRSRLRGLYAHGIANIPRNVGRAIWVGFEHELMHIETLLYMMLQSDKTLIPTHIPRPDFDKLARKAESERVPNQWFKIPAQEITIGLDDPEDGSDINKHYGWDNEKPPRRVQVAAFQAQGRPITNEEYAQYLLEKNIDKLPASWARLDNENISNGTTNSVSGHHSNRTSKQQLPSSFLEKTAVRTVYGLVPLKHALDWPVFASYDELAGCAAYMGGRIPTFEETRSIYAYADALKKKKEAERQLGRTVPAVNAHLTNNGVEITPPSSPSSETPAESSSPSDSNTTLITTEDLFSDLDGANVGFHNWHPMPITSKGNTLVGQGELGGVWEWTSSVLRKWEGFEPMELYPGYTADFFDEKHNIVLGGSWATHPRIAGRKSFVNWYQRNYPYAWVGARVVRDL
# B1: NcEgt-1: enzyme from Neurospora crassa that catalyzes oxidative coupling of hercynine and cysteine (protein)
# chain: MPSAESMTPSSALGQLKATGQHVLSKLQQQTSNADIIDIRRVAVEINLKTEITSMFRPKDGPRQLPTLLLYNERGLQLFERITYLEEYYLTNDEIKILTKHATEMASFIPSGAMIIELGSGNLRKVNLLLEALDNAGKAIDYYALDLSREELERTLAQVPSYKHVKCHGLLGTYDDGRDWLKAPENINKQKCILHLGSSIDKVGITHEFILNGLRNANEIIGETAFIEGDWRVIGEYVYDEEGGRHQAFYAPTRDTMVMGELIRSHDRIQIEQSLKYSKEESERLWSTAGLEQVSEWTYGNEYGLHLLAKSRMSFSLIPSVYARSALPTLDDWEALWATWDVVTRQMLPQEELLEKPIKLRNACIFYLGHIPTFLDIQLTKTTKQAPSEPAHFCKIFERGIDPDVDNPELCHAHSEIPDEWPPVEEILTYQETVRSRLRGLYAHGIANIPRNVGRAIWVGFEHELMHIETLLYMMLQSDKTLIPTHIPRPDFDKLARKAESERVPNQWFKIPAQEITIGLDDPEDGSDINKHYGWDNEKPPRRVQVAAFQAQGRPITNEEYAQYLLEKNIDKLPASWARLDNENISNGTTNSVSGHHSNRTSKQQLPSSFLEKTAVRTVYGLVPLKHALDWPVFASYDELAGCAAYMGGRIPTFEETRSIYAYADALKKKKEAERQLGRTVPAVNAHLTNNGVEITPPSSPSSETPAESSSPSDSNTTLITTEDLFSDLDGANVGFHNWHPMPITSKGNTLVGQGELGGVWEWTSSVLRKWEGFEPMELYPGYTADFFDEKHNIVLGGSWATHPRIAGRKSFVNWYQRNYPYAWVGARVVRDL
# modifications: Neurospora crassa OR74A
# notes: enzyme from Neurospora crassa that catalyzes oxidative coupling of hercynine and cysteine
# How the values were obtained:
# OvoA = OvoA (Erwinia tasmaniensis, UniProt B2VFD8); assay: OvoA activity, oxygen consumption assay / kinetic analysis; format: biochemical; conditions: air-saturated HEPES buffer
# Description: (§1) Two different assays were developed for both EgtB and OvoA catalysis (FIG. 3). Both EgtB and OvoA are proposed to be oxidases,^[9-10] which catalyze the oxidative coupling between His and Cys to form the C—S bond. At the same time, sulfur is oxidized to sulfoxide. The overall process is a four-electron oxidation process (FIG. 1) similar to the case of the isopenicillin N synthase.^[12] In the initial report by Seebeck, they monitored the reaction by monitoring the absorption changes at 260 nm because the oxidative products (3 or 6, FIG. 1) have absorptions in this region. However, it is not very sensitive. Oxygen is needed because there was no detectable product formation under anaerobic conditions. Based on this feature, we developed the EgtB and OvoA activity assays by monitoring the oxygen consumption rate (FIG. 3-I-B) using the NeoFoxy oxygen electrode (FIG. 3-I-A). This assay (FIG. 3-I-B) was used as the routine assay to optimize the conditions for EgtB and OvoA activities.
# (§2) For oxygenase or oxidase-catalyzed reaction, potential problems include the presence of side-reactions, non-productive oxygen consumption, or oxidative inactivation of enzyme itself. Multiple activity assays will provide useful information to analyze those situations. To achieve this goal, besides the oxygen consumption assay, we have also developed a ^1H-NMR assay to directly monitor the product formation (FIG. 3-II). In ^1H-NMR, the chemical shifts of the imidazole H-atoms in both the products (3 and 6, FIG. 3-II) and the substrates (1 and 2) are well-separated from the rest of the reaction mixture. Thus, the reaction mixture can be analyzed routinely without the need of a product separation. In FIG. 3-II-B (OvoA catalysis), the signals with chemical shifts at 6.93 ppm and 7.70 ppm are assigned to the two histidine imidazole H-atoms. The signal at 7.83 ppm is from the imidazole H-atom of the oxidative coupling product 6. While for the oxidative product 3 (EgtB catalysis), its imidazole H-atom has a chemical shift of 7.10 ppm (FIG. 3-II-B). […]
# EgtB = EgtB (Mycolicibacterium smegmatis, UniProt A0R5N0); assay: EgtB activity using hercynine (2) and Cys as substrates; format: biochemical, Mycobacterium smegmatis
# Description: as §1
# According to the initial reports from Seebeck,^[9-10] EgtB and OvoA distinguish themselves from each other by both their substrate preferences and their product C—S bond regio-selectivity (FIG. 1). The C—S bond in ergothioneine (5) is located at the histidine ε-carbon, while for ovothiol, the C—S bond is located at the histidine δ-carbon (8). Their substrate preferences are also different. […]
# N[C@@H](CS)C(=O)O = assay: OvoA activity, oxygen consumption assay / kinetic analysis; format: biochemical, Erwinia tasmaniensis; conditions: other: air-saturated HEPES buffer; coupling with hercynine (2)
# Description: as §1, §2
# [1] = test system: C[N+](C)(C)[C@@H](Cc1cnc[nH]1)C(=O)[O-]; assay: as above; format: biochemical, Erwinia tasmaniensis; conditions: other: air-saturated HEPES buffer; coupling with Cys
# Description: as §1, §2
# NcEgt-1 = molecular target: T1, NcEgt-1; assay: NcEgt-1 catalysed oxidative coupling of hercynine (2) and Cys to form 4; format: biochemical
# Description: In the above section, we have successfully solved the EgtE problems, which enable ergothioneine production through metabolic engineering. However, the original ergothioneine biosynthetic pathway (FIG. 1A) is not efficient. To solve this problem, we initiated the search for enzymes that can oxidatively couples hercynine (2) and Cys directly as outlined in FIG. 2. Two of such enzymes (OvoA in FIG. 1B and NcEgt-1 from Neurospora crassa^[13]) have been identified by a combination of bioinformatics analysis and activity analysis using oxygen and ^1H-NMR assays.
# Based on this exciting discovery, we have also examined another protein NcEgt-lfrom Neurospora crassa^[13].
molecule,measurement,setting,value
C[N+](C)(C)[C@@H](Cc1cnc[nH]1)C(=O)[O-] [hercynine],kcat for the oxidative coupling between Cys and hercynine (2),OvoA,4.5 ± 0.083 s⁻¹
"N[C@@H](CS)C(=O)O [Cys, cysteine]",recognition as substrate by EgtB,EgtB,cannot recognize Cys as the substrate
OvoA (Erwinia tasmaniensis Et1/99),Km,N[C@@H](CS)C(=O)O,3190 ± 410 µM
same,Km,[1],395 ± 30 µM
B1,activity of 2→4 conversion compared with OvoA,NcEgt-1,same order of magnitude as OvoA
